According to patent US20020128178A1, “Use of growth hormone or a growth hormone secretagogue for promoting bone formation” (priority 1996, published 2002):

Key:
[1] = tested on: fracture-healing in rabbits; settings: no distraction; cited from earlier work
[2] = tested on: distracted tibia (callus distraction) of Yucatan mini-pigs; assay: Mechanical torsion testing of distracted tibia after callus distraction in GH-treated mini-pigs; type: in vivo, Yucatan mini-pig; settings: at sacrifice
Protocol: After sacrifice, the right and left limb were dissected. The soft tissue around the joints was removed, and the ends of the tibia were casted in Beracryl. The constructs were placed in a materials testing machine (Zwick, Ulm, Germany), and torsional moments were applied. Resulting displacements and torsional moments were recorded. The test was conducted with a speed of 30° per minute until failure. The system automatically terminated the test at a torque of 20%.
The final bone torsional strength of a mini-pig group treated with growth hormone was investigated relative to a control group.
30 mature female Yucatan mini-pigs were equally distributed into two treatment groups. Mini-pigs in the study group received a daily injection of recombinant porcine growth hormone (r-pGH: 100 μg/kg), the mini-pigs in the control group received sodium chloride as placebo. The left tibiae and fibulae were osteotomized and stabilized with an external fixator. Full weight bearing was permitted. The legs were distracted twice daily at 2 mm/day for 10 days and then allowed to consolidate for 10 days. After sacrifice, torsional moments were applied to the distracted and the contralateral tibia in a material testing machine and the maximum torsional moment was determined. Four animals were removed from the study due to bone infection or surgery failure and data of 2 animals were lost due to test machine failure. A t-test was used to determine differences in maximum torsional moments between the treatment groups.

healing fracture in dogs = settings: compared to non-treated dogs; cited from earlier work

## growth hormone
[1]
  effect on fracture-healing: no effect

B1: GH: recombinant porcine growth hormone (r-pGH), homologous GH injected daily at 100 μg/kg in mini-pigs (protein, UniProt P01248 27-216, looked up)
Somatotropin: FPAMPLSSLFANAVLRAQHLHQLAADTYKEFERAYIPEGQRYSIQNAQAAFCFSETIPAPTGKDEAQQRSDVELLRFSLLLIQSWLGPVQFLSRVFTNSLVFGTSDRVYEKLKDLEEGIQALMRELEDGSPRAGQILKQTYDKFDTNLRSDDALLKNYGLLSCFKKDLHKAETYLRVMKCRRFVESSCAF
[2]; r-pGH 100 μg/kg daily injection, distraction 2 mm/day for 10 days, consolidation 10 days, p=0.001 vs placebo
  maximum torsional moment of distracted tibia: 19.5±7.8 Nm
[2]; r-pGH 100 μg/kg daily, p<0.001 vs control
  maximum torsional moment in comparison to the intact contralateral tibia: 64±22.4%
[2]; r-pGH 100 μg/kg daily, versus placebo group
  higher maximum torsional moment than placebo group: 131%

B2: cST: canine somatotropin given to dogs in the study of Buonomo et al. (protein, UniProt P33711 27-216, looked up)
Somatotropin: FPAMPLSSLFANAVLRAQHLHQLAADTYKEFERAYIPEGQRYSIQNAQAAFCFSETIPAPTGKDEAQQRSDVELLRFSLLLIQSWLGPVQFLSRVFTNSLVFGTSDRVYEKLKDLEEGIQALMRELEDGSPRAGQILKQTYDKFDTNLRSDDALLKNYGLLSCFKKDLHKAETYLRVMKCRRFVESSCAF
Healing fracture in dogs
  increase of stiffness of the healing fracture: 5 fold
  increase of strength of the healing fracture: 3 fold
